Some results are limits rather than exact numbers.

One experiment concerns the target HLA-B*54:01. In words: IEDB peptide-MHC binding, purified MHC/competitive/radioactivity; filed as Kd, often an IC50 or EC50 that approximates it; ≥ and ≤ were set here for values at or beyond the usual limits of such assays.
A further experiment addresses HLA-B*51:01. Described as above.
For a further experiment, the target named is HLA-B*53:01. Described as above.
A further experiment addresses HLA-B*07:02. The experiment is described as above.
The target in another experiment is HLA-B*35:01. Described as above.
The next experiment concerns the target HLA-B*57:01. The experiment in a line: IEDB peptide-MHC binding, purified MHC/direct/fluorescence; filed as Kd, often an IC50 or EC50 that approximates it; ≥ and ≤ were set here for values at or beyond the usual limits of such assays.
In the next experiment the target is HLA-B*15:17. The experiment is described as above.
Another experiment deals with HLA-B*58:01. Described as above.
The target of experiment [1] is HLA-A*11:01. In words: IEDB peptide-MHC binding, purified MHC/competitive/fluorescence; ≥ and ≤ were set here for values at or beyond the usual limits of such assays. As to conditions: source organism: Zaire ebolavirus.
In the next experiment the target is HLA-A*02:01. The description is as above. The note with it: source organism: Zaire ebolavirus.
The target of another experiment is HLA-A*69:01. In words: IEDB peptide-MHC binding, purified MHC/direct/fluorescence; filed as Kd, often an IC50 or EC50 that approximates it; ≥ and ≤ were set here for values at or beyond the usual limits of such assays. The note with it: source organism: Mycobacterium tuberculosis variant bovis BCG str. Pasteur 1173P2.
The target in experiment [2] is HLA-A*11:01. The experiment is described as above. As to conditions: source organism: Mycobacterium tuberculosis variant bovis BCG str. Pasteur 1173P2.
In a further experiment the target is HLA-A*03:01. The experiment is described as above. The note with it: source organism: Mycobacterium tuberculosis variant bovis BCG str. Pasteur 1173P2.
The next experiment deals with HLA-A*01:01. Described as above. As to conditions: source organism: Mycobacterium tuberculosis variant bovis BCG str. Pasteur 1173P2.
In another experiment the target is HLA-B*08:01. The description is as above. The note with it: source organism: Mycobacterium tuberculosis variant bovis BCG str. Pasteur 1173P2.
A further experiment addresses HLA-B*48:01. The experiment is described as above.
For another experiment, the target named is HLA-B*40:01. The description is as above. As to conditions: source organism: Mycobacterium tuberculosis variant bovis BCG str. Pasteur 1173P2.
In the next experiment the target is HLA-B*46:01. The experiment is described as above. As to conditions: source organism: Mycobacterium tuberculosis variant bovis BCG str. Pasteur 1173P2.
In the next experiment the target is HLA-B*18:01. Described as above. The note with it: source organism: Mycobacterium tuberculosis variant bovis BCG str. Pasteur 1173P2.
Another experiment has as its target HLA-B*27:05. The description is as above. The note with it: source organism: Mycobacterium tuberculosis variant bovis BCG str. Pasteur 1173P2.
Another experiment concerns the target HLA-B*44:02. The description is as above. The note with it: source organism: Mycobacterium tuberculosis variant bovis BCG str. Pasteur 1173P2.
The next experiment addresses HLA-A*31:01. The description is as above. As to conditions: source organism: Mycobacterium tuberculosis variant bovis BCG str. Pasteur 1173P2.
Another experiment deals with HLA-A*26:01. In words: IEDB peptide-MHC binding, purified MHC/competitive/fluorescence; filed as Kd, often an IC50 or EC50 that approximates it; ≥ and ≤ were set here for values at or beyond the usual limits of such assays.
Where [3] appears, read: source organism: Vaccinia virus WR.
Where [4] appears, read: source organism: Mammarenavirus lassaense.
The mark [5] stands for this setting: source organism: SARS coronavirus Tor2.
Setting [6] is: source organism: Listeria monocytogenes serotype 4b str. H7858.
Setting [7] is: source organism: Triticum aestivum.
Setting [8] is: source organism: Mycobacterium tuberculosis variant bovis BCG str. Pasteur 1173P2.
[9] abbreviates: source organism: West Nile virus.

In the case of TPLHKYCVNL, the Kd was 4.86 µM with HLA-B*54:01 (setting [3]); ≥ 37.1 µM with HLA-B*51:01 (setting [3]); 0.891 µM with HLA-B*53:01 (setting [3]); 0.0113 µM in the experiment with HLA-B*07:02 (setting [3]); 7.36 µM with HLA-B*35:01 (setting [3]).

FPAQPGLTSA: the Kd was 0.00639 µM with HLA-B*54:01 (setting [4]); ≥ 32.3 µM with HLA-B*51:01 (setting [4]); 2.91 µM with HLA-B*53:01 (setting [4]); 0.0496 µM with HLA-B*07:02 (setting [4]); 0.051 µM in the experiment with HLA-B*35:01 (setting [4]).

As for IPTNFSISI, the Kd was 0.0499 µM with HLA-B*54:01 (setting [5]); 0.0571 µM in the experiment with HLA-B*51:01 (setting [5]); 0.0107 µM with HLA-B*53:01 (setting [5]); 0.0641 µM in the experiment with HLA-B*07:02 (setting [5]); 0.0312 µM in the experiment with HLA-B*35:01 (setting [5]).

For the sequence KSAYPFDEL, the Kd was ≥ 20 µM in the experiment with HLA-B*57:01 (setting [6]), 0.134 µM with HLA-B*15:17 (source organism: Listeria monocytogenes) and 0.046 µM in the experiment with HLA-B*58:01 (setting [6]).

For the sequence FPSQQPYL, the dissociation constant Kd in the experiment with HLA-B*54:01 (setting [7]) was found to be 4.33 µM; with HLA-B*51:01 (setting [7]), 0.00353 µM; in the experiment with HLA-B*53:01 (setting [7]), 0.323 µM; in the experiment with HLA-B*07:02 (setting [7]), 1.03 µM; with HLA-B*35:01 (setting [7]) it was 0.735 µM.

For the sequence LPPFTQHLL, the dissociation constant Kd with HLA-B*54:01 (setting [3]) was found to be 3.03 µM; in the experiment with HLA-B*51:01 (setting [3]) it was 0.0186 µM; in the experiment with HLA-B*53:01 (setting [3]), 0.0913 µM; with HLA-B*07:02 (setting [3]) it was 0.401 µM; in the experiment with HLA-B*35:01 (setting [3]), 0.24 µM.

For DPDHYKDYA, the equilibrium dissociation constant (Kd) with HLA-B*54:01 (setting [3]) is 7.01 µM; with HLA-B*51:01 (setting [3]) it was ≥ 22.5 µM; in the experiment with HLA-B*53:01 (setting [3]) it was ≥ 75.5 µM; in the experiment with HLA-B*07:02 (setting [3]), 14.8 µM; with HLA-B*35:01 (setting [3]), ≥ 77.4 µM.

As to VVAFLILPQ, the concentration for half-maximal inhibition (IC50) with HLA-A*11:01 [1] was ≥ 1240 µM; in the experiment with HLA-A*02:01, ≥ 1420 µM.

IIRVTSELL: the Kd with HLA-A*69:01, with HLA-A*11:01 [2], with HLA-A*03:01, with HLA-A*01:01, with HLA-B*57:01 (setting [8]) and with HLA-B*58:01 (setting [8]) was ≥ 20 µM in each case. Moreover, the dissociation constant Kd with HLA-B*08:01 is 13 µM; with HLA-B*48:01 (setting [8]), ≥ 20 µM; with HLA-B*40:01, ≥ 20 µM; with HLA-B*46:01, ≥ 20 µM; with HLA-B*18:01, ≥ 20 µM; with HLA-B*27:05 it was ≥ 20 µM. The Kd with HLA-B*44:02 and with HLA-A*31:01 was ≥ 20 µM each time.

In the case of YTYATRGIY, the Kd in the experiment with HLA-A*26:01 (source organism: Yersinia pestis Nepal516) was 0.0062 µM.

In the case of DTVHDRTPY, in the experiment with HLA-A*26:01 (source organism: Influenza A virus (A/Waikato/7/2000(H3N2))), the Kd is 0.0414 µM.

As to HGEYAPFAR, in the experiment with HLA-A*11:01 [1], the IC50 came out at 61.7 µM.

For TPVYKLDIS, the IC50 was 65.8 µM in the experiment with HLA-A*11:01 [1] and ≥ 170 µM in the experiment with HLA-A*02:01.

For the sequence RVLEMVEDW, the Kd with HLA-B*57:01 (setting [9]) stood at 0.0879 µM; with HLA-B*15:17 (setting [9]), 0.0432 µM.

As to APAICHEGKA, the dissociation constant (Kd) in the experiment with HLA-B*54:01 (setting [5]) is 1.47 µM; with HLA-B*51:01 (setting [5]), ≥ 43 µM; in the experiment with HLA-B*53:01 (setting [5]), 17.3 µM; in the experiment with HLA-B*07:02 (setting [5]), 2.01 µM; with HLA-B*35:01 (setting [5]), ≥ 53.5 µM.

As for EQLGVPLHL, in the experiment with HLA-B*48:01 (source organism: Vibrio alginolyticus 12G01), the Kd came to 0.488 µM.

With LPMIIGEPII, the Kd came to 0.0311 µM in the experiment with HLA-B*54:01 (setting [3]); 0.456 µM in the experiment with HLA-B*51:01 (setting [3]); 0.0333 µM with HLA-B*53:01 (setting [3]); 0.00912 µM in the experiment with HLA-B*07:02 (setting [3]); 0.75 µM in the experiment with HLA-B*35:01 (setting [3]).

(Values after the Immune Epitope Database (IEDB).)
